Here are results for two variants from IntAct's records for PubMed 15949802.

B1: Peroxisomal targeting signal receptor (Saccharomyces cerevisiae), P35056 (parent)
chain: MDVGSCSVGNNPLAQLHKHTQQNKSLQFNQKNNGRLNESPLQGTNKPGISEAFISNVNAISQENMANMQRFINGEPLIDDKRRMEIGPSSGRLPPFSNVHSLQTSANPTQIKGVNDISHWSQEFQGSNSIQNRNADTGNSEKAWQRGSTTASSRFQYPNTMMNNYAYASMNSLSGSRLQSPAFMNQQQSGRSKEGVNEQEQQPWTDQFEKLEKEVSENLDINDEIEKEENVSEVEQNKPETVEKEEGVYGDQYQSDFQEVWDSIHKDAEEVLPSELVNDDLNLGEDYLKYLGGRVNGNIEYAFQSNNEYFNNPNAYKIGCLLMENGAKLSEAALAFEAAVKEKPDHVDAWLRLGLVQTQNEKELNGISALEECLKLDPKNLEAMKTLAISYINEGYDMSAFTMLDKWAETKYPEIWSRIKQQDDKFQKEKGFTHIDMNAHITKQFLQLANNLSTIDPEIQLCLGLLFYTKDDFDKTIDCFESALRVNPNDELMWNRLGASLANSNRSEEAIQAYHRALQLKPSFVRARYNLAVSSMNIGCFKEAAGYLLSVLSMHEVNTNNKKGDVGSLLNTYNDTVIETLKRVFIAMNRDDLLQEVKPGMDLKRFKGEFSF
partner: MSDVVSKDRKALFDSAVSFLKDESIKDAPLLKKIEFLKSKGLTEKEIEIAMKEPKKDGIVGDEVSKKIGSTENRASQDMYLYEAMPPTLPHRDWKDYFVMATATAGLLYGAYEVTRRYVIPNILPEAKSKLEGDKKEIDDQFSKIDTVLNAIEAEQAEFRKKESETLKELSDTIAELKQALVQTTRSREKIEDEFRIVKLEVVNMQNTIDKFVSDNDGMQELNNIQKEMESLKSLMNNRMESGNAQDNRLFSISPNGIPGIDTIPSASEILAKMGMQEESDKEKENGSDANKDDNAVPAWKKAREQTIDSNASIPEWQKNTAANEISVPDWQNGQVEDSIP

The variants in one assay derive from B1. Conditions: with pex14_yeast PEX14, P53112.
Consider W204A, for which the “effect of a mutation on the interaction” value is “decreasing interaction”.

The variants in the next assay derive from B1. Conditions: with pex14_yeast PEX14, P53112. The source holds these as a separate data set.
Consider W120A;W204A, for which the “effect of a mutation on the interaction” value is “disrupting interaction”.
